In the supplement of paper PMC11865577:

Tests used:
Experiment in all cases: pull-down binding Z-score (relative to library population); higher = stronger binding
[1] = test system: TO-N3-2 (biotin conjugate); conditions: RNA library: Library-2
Outline: (§1)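 Biotin-conjugated small molecule (100 pmol) on streptavidin beads was incubated with 1 μg of heat-folded Cy5- or Cy3-end-labelled RNA library in phosphate/NaCl/KCl buffer at 25 °C for 60 min. Following three washes, RNA was eluted with hot SDS and hybridised at 55.5 °C for 20 h to a DNA barcode microarray. The binding value is a Z-score computed from the library mean and standard deviation, after subtraction of beads without compound and averaging of barcoded replicate probes with the highest and lowest excluded.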

[2] = test system: G-clamp-N3 (biotin conjugate); conditions: RNA library: Library-1 (pre-miRNA loops + repeats)
Outline: as §1

TO-N3 (biotin conjugate) = conditions: RNA library: Library-2
Outline: as §1

[3] = test system: TO-3-N3-2 (biotin conjugate); conditions: RNA library: Library-2
Outline: as §1

[4] = test system: TO-3-N3 (biotin conjugate); conditions: RNA library: Library-2
Outline: as §1

Sequence | pull-down binding Z-score [1] | pull-down binding Z-score [2] | pull-down binding Z-score (TO-N3 (biotin conjugate)) | pull-down binding Z-score [3] | pull-down binding Z-score [4]
ACGCGCUGUGACACUUCAAACUCGU [hsa-mir-126] | 0.424 | -0.904 | 0.062 | -0.171 | -0.0932
ACGUCCAGUGGUGCAGAGGUAAUGGACGU [hsa-mir-1306] | 1.37 | 2.13 | 0.283 | 0.227 | 0.0986
ACGUCUGGCCGCGUGCGCAUGU [hsa-mir-3175] | 1.89 | 1.55 | 0.838 | -0.244 | -0.222
ACGUGACCUCCUGGGCCUG [hsa-mir-6770-1_6770-3_6770-2] | 1 | -0.342 | 0.829 | 0.131 | 0.505
ACUAAUUUUUCCACUAGUUAGU [hsa-mir-4424] | -1.16 | -0.61 | -0.137 | -0.199 | 0.228
ACUACUAUAGGCCGCUGGGAAGCAGU [hsa-mir-130b] | 0.667 | 0.987 | 1.13 | 0.542 | 1.04
ACUACUGUACUUUACAGCUAGCAGU [hsa-mir-301a] | 1.09 | 0.0373 | 0.303 | -0.244 | -0.475
ACUACUGUGCUCUGAGAAGCAGU [hsa-mir-301b] | 0.325 | 1.42 | 0.643 | -0.255 | 0.599
ACUAGAUUUGAAUCCAGACCUUUAGU [hsa-mir-5584] | -0.111 | -0.461 | 0.715 | 0.3 | 0.878
ACUCCCAGAACUCAUUAAGUUGGUAGU [hsa-mir-1278] | -0.482 | -0.174 | -0.188 | -0.184 | -0.0721
ACUCCUAGGUCACGGAAGU [hsa-mir-6838] | -0.0545 | -0.404 | -0.23 | -0.33 | -0.255
ACUGAACCAGCUUCAAACAAGUUCACU [hsa-mir-653] | -0.00579 | -0.145 | -0.121 | 0.0338 | -0.0896
ACUUAAGCACCAGGUAAAAUCUGGUGCUUAAGU [hsa-mir-4720] | -1.69 | 0.139 | -1.56 | -0.698 | -1.09
ACUUCAGAUGCUUCAUGACA [hsa-mir-6865] | -0.0136 | -0.511 | -0.0452 | -0.117 | -0.0886
ACUUUCACCAGAGAGCAGAAAGU [hsa-mir-371b] | -0.356 | 0.341 | -0.636 | -0.564 | -0.485
ACUUUCUGGUGCCAGAAUGAAAGU [hsa-mir-512-2_512-1] | 0.129 | -0.15 | -0.538 | -0.218 | -0.391
ACUUUCUGUUUGAAAGAAAACAAAGU [hsa-mir-519e] | -0.767 | -0.167 | -0.981 | -0.409 | -0.798
ACUUUUUUUUUUUUUUUUUUUAAUGUUAAAAGU [hsa-mir-5588] | -0.107 | 0.463 | -0.82 | 0.823 | -0.429
AGAAAAUUUUUCUCCAAAGUUUUCU [hsa-mir-4659b] | -1.66 | -0.123 | -1.06 | -0.443 | -0.634

Sequence | pull-down binding Z-score [1] | pull-down binding Z-score [2] | pull-down binding Z-score (TO-N3 (biotin conjugate)) | pull-down binding Z-score [3] | pull-down binding Z-score [4]
AGAAACCUACUUAUUACAUAGUUUACAUAAGAAGCGUGAU [hsa-mir-1322] | -0.00549 | -0.594 | 0.0288 | -0.0921 | -0.129
AGAAAGUGAAACACUAUUUUAGGUUUU [hsa-mir-4458] | -0.248 | -0.486 | -0.0974 | -0.00981 | 0.0524
AGAAAUCAAGCUAUUUGCUAAAAGUUCU [hsa-mir-6844] | -0.0563 | -0.369 | -0.316 | 0.246 | -0.362
AGAACAGAUAUAUCCACAGUACACUUGGCUGUUCU [hsa-mir-4753] | -0.635 | 0.593 | -0.943 | -0.354 | -0.759
AGAACAUUCGUUCACUUUCCU [hsa-mir-6747] | -0.376 | -1.1 | -0.404 | -0.29 | -0.352
AGAACUUUGGUUUU [hsa-mir-4434] | -1.38 | 0.298 | -1.1 | -0.611 | -0.711
AGAAGAACU [hsa-mir-378j] | -0.277 | -0.205 | -0.272 | -0.0957 | -0.279
AGAAGACCU [hsa-mir-378g] | 0.244 | 0.213 | 0.403 | 0.241 | 0.421
AGAAGCCCAGGUUCUGAAUCCCCU [hsa-mir-6734] | 0.901 | -1.05 | 0.628 | 0.23 | 0.393
AGAAGCUAAAGUGUAGAUCAAACGCAUAAUGGCUGA [hsa-mir-4500] | 0.233 | -0.364 | 0.65 | 0.195 | 0.197
AGAAGGCCUAUGGUGAUUUGCAUUCUU [hsa-mir-6875] | -0.105 | 0.997 | -0.072 | 0.226 | -0.099
AGAAUUACUUAUCUGAGCCAAAGUAAUUCA [hsa-mir-1297] | -0.336 | -0.86 | 0.386 | 0.225 | 0.332
AGACAGCCUGAGUUGGAGGCUCAUCUUCACUUCUUGCUGUGU [hsa-mir-3168] | 0.168 | -0.917 | 0.262 | -0.221 | 0.0963
AGACCUUCCUUCCUUGUCU [hsa-mir-3163] | -0.35 | -1.91 | -0.558 | -0.206 | -0.452
AGACUCUGGAUUUUACACUUGGAGUG [hsa-mir-887] | -0.0223 | -0.423 | -0.207 | -0.196 | -0.461
AGAGAUGAGCAUAAAGUUUUU [hsa-mir-6086] | -0.389 | -1.36 | -0.104 | -0.12 | 0.0616
AGAGCACCUCCUAGAGAAUGUUGAACUAAAGGUGCCC [hsa-mir-4723] | 1.16 | -0.814 | 0.813 | 0.528 | 0.573
AGAGCGUGGGCUGGGGUUCAGGGACACCCUCU [hsa-mir-1229] | 1.86 | 1.46 | 1.57 | 0.738 | 1.15
